Experimental data: US20170165337A1 (IMMATICS BIOTECHNOLOGIES, published 2017)

Biological target: T1, HLA-A*02:01 (human)
T1 construct: MHC class I monomer of the UV-ligand exchange assay; also called peptide-receptive MHC molecules; MHC class I
Test: UV peptide-exchange ELISA
In short: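 Peptide-MHC complexes formed by UV-mediated exchange of a UV-cleavable peptide for the test peptide; exchange yield quantified by β2m ELISA. Diluted 100-fold, captured on streptavidin-coated plates 1 h at 37 °C, detected with HRP anti-β2m and TMB at 450 nm against refolded HLA-A*02:01 monomer standards (15-500 ng/ml).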

| peptide exchange yield [%] | Binder |
| --- | --- |
| 50 to 75 | HLIDTNKIQL |
| 50 to 75 | ILQEFESKL |
| 50 to 75 | ILTELGGFEV |
| 50 to 75 | ITTEVVNELYV |
| 50 to 75 | KMDWIFHTI |
| 50 to 75 | LISPLLLPV |
| 50 to 75 | NLWSLVAKV |
| 50 to 75 | RLLDLENSLLGL |
| 50 to 75 | SIFASPESV |
| 50 to 75 | SLADDSVLERL |
| 50 to 75 | SLFGPLPGPGPALV |
| 20 to 50 | TLLADQGEIRV |
| 50 to 75 | VLSVITEEL |
| 50 to 75 | VLWFKPVEL |
| 50 to 75 | VLYNQRVEEI |
| 50 to 75 | VVDGTCVAV |

| peptide exchange yield [%] | Binder |
| --- | --- |
| 50 to 75 | YILGKFFAL |
| 50 to 75 | YLAELVTPIL |
| 50 to 75 | YLDRKLLTL |
| 50 to 75 | YLLEENKIKL |
| ≥ 75 | YLLPLLQRL |
| ≥ 75 | YLLREWVNL |
| ≥ 75 | YMIGSEVGNYL |
| 50 to 75 | YTIPLAIKL |
| 50 to 75 | VIAELPPKVSV |
| 50 to 75 | YIIDSAQAV |
| 50 to 75 | YIQQGIFSV |
| 50 to 75 | SLAHVAGCEL |
| 50 to 75 | KLLESVASA |
| 50 to 75 | SLAGGLDDMKA |
| 20 to 50 | GLSIFAQDLRL |

The next lines start with the binder.

| Binder | peptide exchange yield [%] |
| --- | --- |
| FIWPMLIHI | 50 to 75 |
| FLHDHQAEL | 20 to 50 |
| FLIQEIKTL | 50 to 75 |
| FLTDYLNDL | 50 to 75 |
| FILTHVDQL | ≥ 75 |
| FMQDPMEVFV | 50 to 75 |
| FIMEGGAMVL | ≥ 75 |
| FIMEGGAMV | 50 to 75 |
| FLDALLTDV | 50 to 75 |
| FLDEDDMSL | 20 to 50 |
| FLDPSLDPLL | 50 to 75 |
| FLEEGGVVTV | 50 to 75 |
| FLLGPEALSFA | ≥ 75 |
| FLLSINDFL | 50 to 75 |
| FLPELPADLEA | 50 to 75 |
| FLSDQPEPYL | 20 to 50 |
| FLSPQQPPLL | 50 to 75 |
| FLTDLFAQL | ≥ 75 |
| FLFEPVVKAFL | 50 to 75 |
| ALIFKIASA | 50 to 75 |
| FLVEAPHDWDL | ≥ 75 |

| Binder | peptide exchange yield [%] |
| --- | --- |
| FLVETGFLHV | ≥ 75 |
| FLWQHVELVL | 50 to 75 |
| FLYPFPLALF | 50 to 75 |
| FMEPTLLML | 50 to 75 |
| FVFEAPYTL | 50 to 75 |
| GLSEISLRL | ≥ 75 |
| FVFGDENGTVSL | 50 to 75 |
| FVLDHEDGLNL | 50 to 75 |
| ALDTLEDDMTI | 50 to 75 |
| FVYFIVREV | 50 to 75 |
| GIIDGSPRL | 50 to 75 |
| GLDDMKANL | 20 to 50 |
| GLDDVTVEV | 20 to 50 |
| GLDQQFAGLDL | 10 to 20 |
| GLHQREIFL | 50 to 75 |
| FVPDTPVGV | 50 to 75 |
| ALLERTGYTL | 50 to 75 |
| GLKHDIARV | 50 to 75 |
| GLLDAGKMYV | 50 to 75 |
| GLLEVISALQL | 50 to 75 |
| GLLRASFLL | 20 to 50 |
